# Test results published in PMC6424611.
# Assays:
# [1] = target: biotinylated RSK1 725-735 peptide, phosphorylated at Ser732 (position -3) (human) (UniProt Q15418); experiment: holdup assay
# [2] = target: biotinylated RSK1 725-735 peptide, unphosphorylated (human) (UniProt Q15418); experiment: holdup assay
# [3] = target: biotinylated RSK1 725-735 peptide, phosphorylated at Ser732 (position -3) (human) (UniProt Q15418); experiment: SPR
# [4] = target: MBP-fused PDZ domain 1 of PDZRN3 (human) (UniProt Q9UPQ7); experiment: fluorescence polarisation
# [5] = target: MBP-fused PDZ domain of ARHGEF12 (human) (UniProt Q9NZN5); experiment: fluorescence polarisation
# [6] = target: MBP-fused PDZ domain of GOPC (human) (UniProt Q9HD26); experiment: fluorescence polarisation
# [7] = target: MBP-fused PDZ domain of SYNJ2BP (human) (UniProt P57105); experiment: fluorescence polarisation
# [8] = target: biotinylated RSK1 725-735 peptide, unphosphorylated (human) (UniProt Q15418); experiment: SPR
# [9] = target: Scribble PDZ1 (Homo sapiens) (UniProt Q14160); experiment: holdup assay; settings: cited from earlier work
# Scribble PDZ1 (Homo sapiens), sequence (Q14160 725-818): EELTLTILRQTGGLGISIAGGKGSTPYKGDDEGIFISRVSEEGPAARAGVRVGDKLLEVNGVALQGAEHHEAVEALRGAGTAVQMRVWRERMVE
# MBP-fused PDZ domain of SYNJ2BP (human), sequence (P57105 13-100): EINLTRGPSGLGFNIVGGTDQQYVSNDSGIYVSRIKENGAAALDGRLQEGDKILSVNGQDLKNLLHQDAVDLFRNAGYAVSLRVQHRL
# MBP-fused PDZ domain of ARHGEF12 (human), sequence (Q9NZN5 72-151): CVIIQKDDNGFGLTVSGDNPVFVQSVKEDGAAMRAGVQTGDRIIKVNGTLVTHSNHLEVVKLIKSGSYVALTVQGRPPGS
# HPV16 E6 PBM, sequence (P03126 whole entry, looked up): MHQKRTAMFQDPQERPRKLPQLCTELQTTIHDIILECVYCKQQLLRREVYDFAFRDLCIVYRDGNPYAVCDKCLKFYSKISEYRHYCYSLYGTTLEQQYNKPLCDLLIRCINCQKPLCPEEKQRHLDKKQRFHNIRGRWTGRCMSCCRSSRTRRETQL
# MBP-fused PDZ domain 1 of PDZRN3 (human), sequence (Q9UPQ7 249-339): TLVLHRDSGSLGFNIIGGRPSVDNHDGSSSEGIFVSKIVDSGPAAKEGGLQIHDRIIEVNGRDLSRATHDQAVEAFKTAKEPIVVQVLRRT
Substance,BI [1],Kd [1] [µM],Kd [2] [µM],BI [2],further results
PDZ domain of LIMK2 (from UniProt P53671 152-239) (domain or fragment),0.22,57.2,> 100,,
PDZ domain of GRASP (from UniProt Q7Z6J2 101-190) (domain or fragment),,> 100,38.8,0.29,
MBP-fused PDZ domain of HTRA1 (from UniProt Q92743 365-467) (domain or fragment),0.36,27.7,19.4,0.44,
PDZ domain of SHANK3 (from UniProt Q9BYB0 646-740) (domain or fragment),,> 100,,0.27,
PDZ domain 3 of LNX1 (from UniProt Q8TBB1 507-593) (domain or fragment),0.24,50.8,> 100,,
MBP-fused PDZ domain of SNTA1 (from UniProt Q13424 87-170) (domain or fragment),0.53,13.2,35.1,0.31,
MBP-fused PDZ domain 1 of NHERF3 (from UniProt Q5T2W1 9-90) (domain or fragment),,> 100,22.1,0.41,
PDZ domain 3 of DFNB31 (from UniProt Q9P202 816-899) (domain or fragment),,> 100,53.8,0.23,
PDZ domain of PPP1R9A (from UniProt Q9ULJ8 504-592) (domain or fragment),0.33,31.8,> 100,,
MBP-fused PDZ domain of SYNJ2BP (from UniProt P57105 13-100) (domain or fragment),0.54,12.6,45.4,0.26,Kd [3]: 25 µM
MBP-fused PDZ domain of SNTG2 (from UniProt Q9NY99 73-156) (domain or fragment),0.52,13.8,22.1,0.41,Kd [3]: 37 µM
MBP-fused PDZ domain 1 of PDZRN3 (from UniProt Q9UPQ7 249-339) (domain or fragment),0.45,18.6,45.4,0.26,
"RSK1 683-735 peptide, unphosphorylated (from UniProt Q15418 683-735)",,,,,Kd [4]: > 100 µM; Kd [5]: 6.6 µM; Kd [6]: 27 µM; Kd [7]: > 100 µM
PDZ domain of LAP2 (from UniProt Q96RT1 1321-1410) (domain or fragment),0.28,40.8,> 100,,
MBP-fused PDZ domain of ARHGEF12 (from UniProt Q9NZN5 72-151) (domain or fragment),,> 100,4.2,0.77,Kd [8]: 2.79 µM
PDZ domain 1 of GRID2IP (from UniProt A4D2P6 3-84) (domain or fragment),0.24,50.8,> 100,,
HPV16 E6 PBM (from UniProt P03126),,,,,Kd [9]: 7.5 µM
PDZ domain 2 of DLG4 (from UniProt P78352 160-246) (domain or fragment),0.25,,> 100,0.11,
PDZ domain of GORASP1 (domain or fragment),,,> 100,,
PDZ domain of SHROOM2 (from UniProt Q13796 26-108) (domain or fragment),0.21,60.8,> 100,,
MBP-fused PDZ domain 2 of MAGI2 (from UniProt Q86UL8 426-510) (domain or fragment),0.23,53.8,21.2,0.42,
MBP-fused PDZ domain 2 of GRID2IP (from UniProt A4D2P6 279-356) (domain or fragment),,> 100,7.1,0.67,Kd [8]: 3.96 µM
PDZ domain of PTPN3 (from UniProt P26045 510-582) (domain or fragment),0.21,60.8,> 100,,
PDZ domain 2 of NHERF2 (from UniProt Q15599 150-230) (domain or fragment),,> 100,64.8,,
MBP-fused second PDZ domain of MAGI1 (from UniProt Q96QZ7 472-554) (domain or fragment),0.15,92.9,20.3,0.43,
MBP-fused PDZ domain of MAST2 (from UniProt Q6P0Q8 1104-1192) (domain or fragment),0.23,53.8,,0.74,Kd [8]: 7.02 µM
MBP-fused PDZ domain of MAST1 (from UniProt Q9Y2H9 967-1055) (domain or fragment),,> 100,11.1,0.57,
MBP-fused PDZ domain of SNTB1 (from UniProt Q13884 112-195) (domain or fragment),0.45,18.6,57.2,0.22,Kd [3]: 48 µM
PDZ domain of ARHGEF11 (from UniProt O15085 47-126) (domain or fragment),,> 100,40.8,0.28,
MBP-fused PDZ domain 3 of PDZD7 (from UniProt Q9H5P4 862-934) (domain or fragment),0.15,92.9,,,Kd [8]: 6.2 µM
